Assay results reported in the supplement of paper PMC10567573.

B1: IMPA1 (parent)
chain: FIGEESVAAGEKSILTDNPTWIID

Variants of: B1
Experiment: protein stability index of a GFP-peptide fusion (GPS, HEK-293T) (PSI 1-6); higher = more stable
Conditions: c terminus: a fixed tail appended
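Also: lentivirally expressed fusions sorted by FACS into six bins by GFP to DsRed ratio, PSI derived from sequencing read proportions per bin multiplied by bin number.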

Variant	protein stability index
A8P	2.54
A8R	1.62
A8Y	2.39
A8D	2.72
A8T	2.13
A8S	2.3
A8H	1.75
A8C	1.55
A8M	2.05
A8K	2.35
A8E	2.79
A8G	2.46
A8V	2.52
A8Q	2.29
A8F	1.84
A8I	1.58
A8N	2.23
A8L	2.08
A8W	1.74
I14D	2.34
I14F	1.5
I14A	2.47
I14C	1.68
I14E	2.31

Variant	protein stability index
K12L	2.25
K12P	2.45
K12Q	1.97
K12I	1.61
K12R	2.57
K12N	1.89
K12T	2.32
K12F	1.56
K12D	2.27
K12H	2.06
K12Y	2.35
K12V	2.11
K12A	2.25
K12M	2.29
K12C	1.93
K12G	1.91
K12W	1.97
K12S	2.12
K12E	2.21
E5M	2.31
E5P	2.35
E5Q	2.38
E5V	3.68
E5S	1.92

Variant	protein stability index
E5T	2.38
E5Y	2.52
E5W	1.29
E5N	1.53
E5R	2
S13E	2.32
S13A	2.06
S13F	1.97
S13Q	1.99
S13R	2.4
S13I	1.99
S13C	2.27
S13V	2.47
S13T	1.89
S13M	1.73
S13N	1.98
S13D	2.44
S13W	2.21
S13Y	2
S13H	1.96
S13P	2.02
S13G	1.67
S13L	1.95
S13K	2.16

Variant	protein stability index
G10F	1.85
G10R	1.97
G10T	2.19
G10D	2.48
G10W	1.83
G10V	2.37
G10M	2.2
G10Y	1.85
G10S	2
G10P	2.15
G10A	2.18
G10N	2.21
G10I	2.43
G10C	2.21
G10L	2.41
G10E	2.8
G10H	1.87
G10Q	2.67
G10K	2.01
E11F	2.57
E11D	2.3
E11G	1.96
E11K	1.89
E11W	1.37

Variant	protein stability index
E11P	1.53
E11N	2.04
E11C	1.98
E11Q	1.98
E11I	2.1
E11M	2.01
E11R	1.49
E11H	1.7
E11T	2.3
E11L	1.77
E11A	1.86
E11V	1.92
E11Y	1.93
E11S	2.17
V7C	2
V7W	1.94
V7P	2.19
V7I	1.92
V7F	2.05
V7E	3.03
V7Q	2.19
V7R	1.85
V7L	2.25
V7A	2.46

Variant	protein stability index
V7Y	2.01
V7G	2.15
V7N	2.4
V7K	2.53
V7M	1.94
V7T	2.28
V7D	2.71
V7S	2.17
V7H	2.06
A9R	1.5
A9K	1.96
A9S	1.95
A9F	2.04
A9C	1.84
A9I	1.81
A9V	2.31
A9Q	2.24
A9P	2.52
A9W	1.87
A9H	1.8
A9L	1.78
A9D	2.98
A9G	2.09
A9M	1.75

Variant	protein stability index
A9N	2.03
A9Y	2.59
A9T	2.1
A9E	2.42
S6I	1.73
S6D	2.56
S6M	2.07
S6W	2.53
S6V	1.7
S6K	1.57
S6N	2.25
S6E	3.07
S6H	2.29
S6Y	1.51
S6R	1.51
S6A	2.01
S6P	3.1
S6L	2.24
S6F	1.81
S6G	2.42
S6T	2.23
S6C	1.7
S6Q	2.42
